Source: article PMC5366859

Test system: MBP-rAtCHE (Arabidopsis thaliana (homoeolog cloned from resynthesized A. thaliana x A. arenosa allotetraploid))
Experiment: EMSA
Conditions: reference for normalization; 25 mM HEPES pH 7.5, 2.5 mM DTT, 75 mM KCl, 10% glycerol, 1.25 ng poly-dIdC, 10 nM (~15 fmol) DNA, on ice 20 min; 5% native PAGE

AtCCA1p
binding signal (fold (reference for rAaCHE)): 1
